Measurements as given in patent publication US20100323443A1 (BIOLAMINA, published 2010).
Each block holds one molecule with its values, some of them ahead of it.

Legend:
[1] = molecular target: β1-integrin on mouse embryonic stem cells (mouse) (UniProt P09055); assay: cell-based or functional assay
[2] = molecular target: T1, human recombinant laminin-511 (human, UniProt O15230 36-3695; P07942 22-1786; P11047 34-1609); assay: summary of the adhesion-blocking assays
T1 construct: Coated on plates (30 ug/ml) in the adhesion assays; also called laminin-10
Experimental: Attachment assay was performed as described ([Extracellular Matrix Protocols, 2000). Briefly, MaxiSorp 96-well plates (Nunc) coated by extracellular matrix proteins as described above and blocked by 1% heat-denatured BSA solution. Undifferentiated embryonic cells were plated at cell density of 800 cell/mm² upon extracellular matrix-coated plates and were left to adhere for 1 hour at 37° C. Non-adherent cells were washed away, and adherent cells were fixed for 20 min by 5% glutaraldehyde, stained by 0.1% Crystal Violet.
Adhesion-blocking assays were performed as described previously. […] Non-attached cells were removed and the remaining cells were fixed, stained and quantified as described above (Cell adhesion assay). Error bars show standard error (SEM).

Blocking those integrins inhibits ES cell adhesion to LN-511 [1]: 100%
Molecule: human recombinant laminin-511, O15230 36-3695; P07942 22-1786; P11047 34-1609

binding result [2]: binds
B1: α6β1 integrin on mouse embryonic stem cells (receptor)
chain 1: FNLDTREDNVIRKSGDPGSLFGFSLAMHWQLQPEDKRLLLVGAPRAEALPLQRANRTGGLYSCDITSRGPCTRIEFDNDADPMSESKEDQWMGVTVQSQGPGGKVVTCAHRYEKRQHVNTKQESRDIFGRCYVLSQNLRIEDDMDGGDWSFCDGRLRGHEKFGSCQQGVAATFTKDFHYIVFGAPGTYNWKGIVRVEQKNNTFFDMNIFEDGPYEVGGETDHDESLVPVPANSYLGFSLDSGKGIVSKDDITFVSGAPRANHSGAVVLLKRDMKSAHLLPEYIFDGEGLASSFGYDVAVVDLNADGWQDIVIGAPQYFDRDGEVGGAVYVYINQQGKWSNVKPIRLNGTKDSMFGISVKNIGDINQDGYPDIAVGAPYDDLGKVFIYHGSPTGIITKPTQVLEGTSPYFGYSIAGNMDLDRNSYPDLAVGSLSDSVTIFRSRPVINILKTITVTPNRIDLRQKSMCGSPSGICLKVKACFEYTAKPSGYNPPISILGILEAEKERRKSGLSSRVQFRNQGSEPKYTQELTLNRQKQRACMEETLWLQENIRDKLRPIPITASVEIQEPSSRRRVNSLPEVLPILNSNEAKTVQTDVHFLKEGCGDDNVCNSNLKLEYKFGTREGNQDKFSYLPIQKGIPELVLKDQKDIALEITVTNSPSDPRNPRKDGDDAHEAKLIATFPDTLTYSAYRELRAFPEKQLSCVANQNGSQADCELGNPFKRNSSVTFYLILSTTEVTFDTTDLDINLKLETTSNQDNLAPITAKAKVVIELLLSVSGVAKPSQVYFGGTVVGEQAMKSEDEVGSLIEYEFRVINLGKPLKNLGTATLNIQWPKEISNGKWLLYLMKVESKGLEQIVCEPHNEINYLKLKESHNSRKKRELPEKQIDDSRKFSLFPERKYQTLNCSVNVRCVNIRCPLRGLDSKASLVLRSRLWNSTFLEEYSKLNYLDILLRASIDVTAAAQNIKLPHAGTQVRVTVFPSKTVAQYSGVAWWIILLAVLAGILMLALLVFLLWKCGFFKRSRYDDSIPRYHAVRIRKEEREIKDEKHMDNLEKKQWITKWNENESYS
chain 2: QTDKNRCLKANAKSCGECIQAGPNCGWCTNTTFLQEGMPTSARCDDLEALKKKGCQPSDIENPRGSQTIKKNKNVTNRSKGMAEKLRPEDITQIQPQQLLLKLRSGEPQKFTLKFKRAEDYPIDLYYLMDLSYSMKDDLENVKSLGTDLMNEMRRITSDFRIGFGSFVEKTVMPYISTTPAKLRNPCTSEQNCTSPFSYKNVLSLTDRGEFFNELVGQQRISGNLDSPEGGFDAIMQVAVCGSLIGWRNVTRLLVFSTDAGFHFAGDGKLGGIVLPNDGQCHLENNVYTMSHYYDYPSIAHLVQKLSENNIQTIFAVTEEFQPVYKELKNLIPKSAVGTLSGNSSNVIQLIIDAYNSLSSEVILENSKLPDGVTINYKSYCKNGVNGTGENGRKCSNISIGDEVQFEISITANKCPNKESETIKIKPLGFTEEVEVVLQFICKCNCQSHGIPASPKCHEGNGTFECGACRCNEGRVGRHCECSTDEVNSEDMDAYCRKENSSEICSNNGECVCGQCVCRKRDNTNEIYSGKFCECDNFNCDRSNGLICGGNGVCRCRVCECYPNYTGSACDCSLDTGPCLASNGQICNGRGICECGACKCTDPKFQGPTCETCQTCLGVCAEHKECVQCRAFNKGEKKDTCAQECSHFNLTKVESREKLPQPVQVDPVTHCKEKDIDDCWFYFTYSVNGNNEAIVHVVETPDCPTGPDIIPIVAGVVAGIVLIGLALLLIWKLLMIIHDRREFAKFEKEKMNAKWDTGENPIYKSAVTTVVNPKYEGK
notes: whole, on cells

binding result [2]: binds
B2: αVβ1 integrin on mouse embryonic stem cells (receptor)
chain 1: FNLDVESPAEYAGPEGSYFGFAVDFFEPSTSSRMFLLVGAPKANTTQPGIVEGGQVLKCECSSSRRCQPIEFDSTGNRDYAKDDPLEFKSHQWFGASVRSKQDKILACAPLYHWRTEMKQEREPVGTCFLQDGTKTVEYAPCRSKNIDADGQGFCQGGFSIDFTKADRVLLGGPGSFYWQGQLISDQVAEIISKYDPNVYSIKYNNQLATRTAQAIFDDSYLGYSVAVGDFNGDGIEDFVSGVPRAARTLGMVYIYDGKNMSSLHNFTGEQMAAYFGFSVAATDINGDDYADVFIGAPLFMDRGSDGKLQEVGQVSVSLQRAVGDFQTTKLNGFEVFARFGSAIAPLGDLDQDGFNDIAIAAPYGGEDKKGLVYIFNGRSTGLNSVPSQILEGQWAAQSMPPSFGYSMKGATDVDRNGYPDLVVGAFGVDRAVLYRARPVVTVNAGLEVYPSILNQDNKICPLPGTALKVSCFNVRFCLKADGKGTLPRKLHFQVELLLDKLKQKGAIRRALFLHNRSPVHSKTMTVFRGGQMQCEELVAYLRDESEFRDKLTPITIFMEYRLDQRTAADATGLQPILNQFTPANVSRQAHILLDCGEDNVCKPKLEVSVNSDQKKIYIGDDNPLTLTVKAQNQGEGAYEAELIVSIPPQADFIGVVRNNEALARLSCAFKTENQTRQVVCDLGNPMKAGTQLLAGLRFSVHQQSEMDTSVKFDLKIQSSNSFDNVSPVVSYKVDLAVLAAVEIRGVSSPDHIFLPIPNWEYKENPETEEDVGPIVQHIYELRNNGPSSFSKAILNLQWPYKYNNNTLLYILHYDIDGPMNCTADTEINPLRIKTPEKNDTAAAGQGERNHLITKRDLTLREGDVHTLGCGIAKCLQITCQVGRLDRGKSAILYVKSLLWTETFMNKENQNHSYSLKSSASFNIIEFPYKNLPIEDLFNSTLVTTNITWGIQPAPMPVPVWVIILAVLAGLLLLAVLVFVMYRMGFFKRVRPPQEEQEREQLQPHENGEGNSET
chain 2: B1 chain 2
notes: whole, on cells
